For experiment [1], the target named is hen egg white lysozyme (hen) (UniProt P00698). Briefly: calculated from the on-rate and off-rate of the stopped-flow analysis.
Experiment [2] shares this target. In words: fluorescence quench titration, VHLYS concentration from quantitative amino acid analysis. The settings on record: scale: mole of lysozyme per mole of VHLYS domain.
The target is the same in experiment [3]. Briefly: fluorescence quench titration with lysozyme.

What is called Kd is the constant that tells how readily two partners part at equilibrium.

Chain of UniProt P00698 (P00698 19-147 limits assumed): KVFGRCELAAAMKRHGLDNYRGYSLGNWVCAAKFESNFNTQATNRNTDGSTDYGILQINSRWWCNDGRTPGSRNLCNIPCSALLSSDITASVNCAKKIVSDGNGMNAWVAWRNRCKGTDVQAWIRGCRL

On to “VHLYS domain (heavy chain variable domain of the D1.3 anti-lysozyme antibody)”, for which the Kd in experiment [1] is 19 nM; in experiment [3], 12 nM. Besides, the stoichiometry (mole of lysozyme per mole of VHLYS domain) in experiment [2] was found to be 1.2.
